These results are taken from patent US20230235073A1 (ONA THERAPEUTICS S L, published 2023).

In assay [1] the target is T1, human CD36 on cells overexpressing human CD36 (human, UniProt P16671 2-472). Put plainly: FACS on cells overexpressing human CD36, % of Binding. How it is done: For FACS analysis, cells were trypsinized, collected in a 15 mL tube and diluted in washing buffer (2% FBS in PBS). Cells were then centrifuged at 1500 rpm for 5 min at 4° C., supernatant was discarded, and cells were resuspended in fresh washing buffer. Anti-CD36 antibodies were either omitted (control wash buffer treatment) or serially diluted in washing buffer (dilution range up to 100 nM), and then added to the cells. Incubation was performed on ice for 1 hour. Cells were then centrifuged at 1500 rpm for 5 min at 4° C., supernatant was discarded, and cells were resuspended in fresh washing buffer. Finally, cells were incubated with a […] (BV421 Rat Anti-Mouse IgA, Becton Dickinson, reference 743293) diluted 1:100 in washing buffer, washed and analysed by FACS.

In assay [2] the target is T2, human CD36 recombinant protein (Sino Biological, reference 10752-H08H) (human, UniProt P16671 30-439).
T2 construct: Bought recombinant protein
Put plainly: estimated from ELISA, CD36 coated on plate; human CD36 coated on plate. The protocol: (§1) To perform ELISA assays, 96-well ELISA plates were coated over night with human CD36 (Sino Biological, reference 10752-H08H) or mouse CD36 (Sino Biological, reference 50422-M08H) recombinant proteins at a concentration of 0.25 mg/ml. After two washes with PBS, plates were blocked with 4% skimmed milk in PBS for 1 hour at 37° C. Blocking solution was discarded and plates were washed five times with 200 μl/well PBS-Tween20 (0.5%). Primary antibodies were either omitted (control blocking solution treatment) or mixed in blocking solution at several dilutions ranging from 0.01 nM to 0.5 μM. The primary antibody solutions were added to the wells and incubated over night at 4° C. After 5 washes with 200 ul/well of PBS-Tween20 (0.5%), plates were incubated for 1 hour at room temperature with a goat anti-mouse HRP-conjugated antibody (Abeam, reference ab97235) diluted 1:2000 in blocking solution. Plates were then washed 5 times with 200 μl/well of PBS-Tween20 (0.5%), incubated with 100 μl/well TMB and detected after 10 minutes, 30 minutes, or 60 minutes with a spectrophotometer at a wave length of 630 nm.

Assay [3] has as its target T3, mouse CD36 recombinant protein (Sino Biological, reference 50422-M08H) (mouse, UniProt Q08857 30-439).
T3 construct: Bought recombinant protein; also called murine CD36
Description: estimated from ELISA, CD36 coated on plate; mouse CD36 coated on plate. How it is done: as §1

In assay [4] the target is T3, mouse CD36 recombinant protein (Sino …). Description: ELISA, plate coated with mouse CD36, OD630, panel 'Coating: mouse CD36'. How it is done: as §1
The target of assay [5] is T2, human CD36 recombinant protein (Sino …). Put plainly: SPR Biacore T200, antibody captured on anti-mouse IgA, CD36 analyte, 2-state model. The protocol: (§2) The affinity of ONA-0-v1, 1G04, and a commercial anti-CD36 antibody (JC63.1) for human CD36 was also measured by surface plasmon resonance (SPR) using a Biacore T200. 1G04 was analysed using a protein A capture surface, with a capture range of 100-150 RU and an antigen titration range of 3.3-333 nM. The mouse antibodies ONA-0-V1 and the commercial anti-CD36 antibody were analysed using an anti-mouse IgA capture surface, with a capture range of 160-180 RU and an antigen titration range of 3.3-333 nM. For each single analysis cycle a titration of five antigen concentrations were injected over the captured antibody and then the dissociation of the complex was measured. A double referencing method was employed in which data from the reference surfaces where no antibody was captured (fc 1 and 3 respectively) were subtracted from the antibody bound capture surface (fc 2 and 4). Blank injections of buffer were run for every antigen titration cycle and then subtracted from analyte injection cycles, to correct for small changes in the antibody capture surface density. All analysis was performed at 25° C., and the sample rack was kept at 6° C. during experimental runs. Each experiment was run at least three times with the mean binding constants generated from at least two independent assays reported. All analysis was performed in PBS-T running buffer at 40 μL/min.

Assay [6] has the same target. Put plainly: SPR Biacore T200, antibody captured on anti-mouse IgA, CD36 analyte 3.3-333 nM, 1-to-1 model. The protocol: as §2
The target of assay [7] is T1, human CD36 on cells overexpressing …. Put plainly: FACS on cells overexpressing human CD36, MFI.
Assay [8] addresses T3, mouse CD36 recombinant protein (Sino …). Put plainly: ELISA, plate coated with mouse CD36, OD630nm. The protocol:
as §1
In general terms: In an ELISA, binding on a coated surface is turned into a signal by an enzyme label.

Assay [9] addresses T2, human CD36 recombinant protein (Sino …). Description: ELISA, plate coated with human CD36, OD630nm. The protocol: as §1
For assay [10] the target is unchanged. Put plainly: SPR Biacore T200, antibody captured on protein A, CD36 analyte, 2-state model. The protocol: as §2
(In general: SPR reads the build-up and loss of mass on a sensor chip optically.)

Assay [11] shares this target. Description: SPR Biacore T200, antibody captured on protein A, CD36 analyte 3.3-333 nM, 1-to-1 model. How it is done: as §2
For assay [12], the target named is T1, human CD36 on cells overexpressing …. Put plainly: FACS on cells overexpressing human CD36, GeoMFI against Log10 mAb Concentration (nM).
Assay [13] addresses T2, human CD36 recombinant protein (Sino …). Description: ELISA, plate coated with human CD36, OD630, panel 'Coating: human CD36'; Kd printed beside the 1G04 curve. How it is done:
as §1

Assay [14] concerns the target T3, mouse CD36 recombinant protein (Sino …). Description: ELISA, plate coated with mouse CD36, OD630, panel 'Coating: mouse CD36'; Kd printed beside the 1G04 curve. The protocol:
as §1

T1 sequence (P16671 2-472 limits assumed): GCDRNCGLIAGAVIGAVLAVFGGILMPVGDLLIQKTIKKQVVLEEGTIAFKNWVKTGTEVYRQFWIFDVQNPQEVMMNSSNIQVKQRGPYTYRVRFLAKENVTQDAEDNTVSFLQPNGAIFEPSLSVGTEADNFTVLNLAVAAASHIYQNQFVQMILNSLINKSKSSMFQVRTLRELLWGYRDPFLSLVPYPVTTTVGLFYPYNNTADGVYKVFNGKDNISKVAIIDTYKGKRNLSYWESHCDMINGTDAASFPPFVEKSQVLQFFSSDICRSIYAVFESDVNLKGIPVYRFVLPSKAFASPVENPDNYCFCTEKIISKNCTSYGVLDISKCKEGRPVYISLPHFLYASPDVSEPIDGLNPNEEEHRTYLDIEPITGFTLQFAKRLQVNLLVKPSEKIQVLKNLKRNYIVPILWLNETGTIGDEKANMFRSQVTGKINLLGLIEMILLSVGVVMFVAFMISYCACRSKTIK
T2 sequence (P16671 30-439 limits assumed): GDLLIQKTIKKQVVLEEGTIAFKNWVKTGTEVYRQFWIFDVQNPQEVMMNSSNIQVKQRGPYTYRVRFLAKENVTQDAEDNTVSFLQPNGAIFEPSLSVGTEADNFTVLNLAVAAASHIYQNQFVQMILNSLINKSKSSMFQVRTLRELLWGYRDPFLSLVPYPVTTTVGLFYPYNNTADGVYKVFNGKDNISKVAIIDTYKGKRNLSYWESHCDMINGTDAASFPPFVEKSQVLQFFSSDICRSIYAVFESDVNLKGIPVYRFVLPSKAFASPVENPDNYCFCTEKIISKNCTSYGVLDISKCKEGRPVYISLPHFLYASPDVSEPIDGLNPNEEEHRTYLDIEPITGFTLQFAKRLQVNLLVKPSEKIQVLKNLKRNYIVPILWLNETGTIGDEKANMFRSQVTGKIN
T3 sequence (Q08857 30-439 limits assumed, stated change not applied): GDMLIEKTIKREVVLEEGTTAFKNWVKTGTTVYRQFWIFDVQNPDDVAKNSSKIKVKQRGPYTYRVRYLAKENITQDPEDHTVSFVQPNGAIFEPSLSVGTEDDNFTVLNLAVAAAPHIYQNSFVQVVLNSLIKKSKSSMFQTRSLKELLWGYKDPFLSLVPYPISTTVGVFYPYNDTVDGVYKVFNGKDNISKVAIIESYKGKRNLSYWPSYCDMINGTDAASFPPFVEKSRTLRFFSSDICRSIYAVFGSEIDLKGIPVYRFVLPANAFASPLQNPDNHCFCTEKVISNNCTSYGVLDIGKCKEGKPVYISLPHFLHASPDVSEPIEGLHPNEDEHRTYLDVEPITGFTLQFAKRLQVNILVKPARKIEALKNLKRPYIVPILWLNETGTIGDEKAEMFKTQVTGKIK

B1: ONA-0-v1 anti-CD36 antibody (murine IgA) (antibody)
heavy: QVQLKQSGADLVRPGASVKLSCKASGYTFTDYYINWVKQRPGQGLEWIARIYPGSGNTYYNEKFKGKATLTAEKSSSTAYMQLSSLTSEDSAVYFCARGIGGGFGMDYWGQGTSVTVSSESARNPTIYPLTLPPVLCSDPVIIGCLIHDYFPFGTMNVTWGKSGKDITTVNFPPALASGGRYTMSSQLTLPAVECPEGESVKCSVQHDSNPVQELDVNCSPTPPPPITIPSCQPSLSLQRPALEDLLLGSDASITCTLNGLRNPEGAAFTWEPSTGKDAVQKKAAQNSCGCYSVSSVLPGCAERWNSGASFKCTVTHPESGTLTGTIAKVTVNTFPPQVHLLPPPSEELALNELLSLTCLVRAFNPKEVLVRWLHGNEELSPESYLVFEPLKEPGEGATTYLVTSVLRVSAETWKQGDQYSCMVGHEALPMNFTQKTIDRLSGKPTNVSVSVIMSEGDGICY
light: SIVMTQTPKFLLVSAGDRITITCKASQSVSDDVAWYQQKPGQSPKLLIYYASNRYTGVPDRFTGSGYGTDFTFTISTVQAEDLAVYFCQQDYSSPLTFGAGTKLEIKRADAAPTVSIFPPSSEQLTSGGASVVCFLNNFYPKDINVKWKIDGSERQNGVLNSWTDQDSKDSTYSMSSTLTLTKDEYERHNSYTCEATHKTSTSPIVKSFNRNEC
notes: mouse IgA constant region; produced in HEK 293 cells; also called ONA-0-v1 (IgA); ONA-O-v1 (IgA)
As for B1, the results for the “EC50 (read off the curve)” value in [1] and in [4] were ~0.03 nM and ~1 nM, respectively. In addition, the Kd in assay [2] is ~0.04 nM; in assay [3], ~0.1 nM; in assay [5], 8.72 nM; in [6], 5.85 nM. Besides, the koff in [6] stood at 0.00354 s⁻¹. Further, the kon in [6] was 632000 M⁻¹ s⁻¹.

B2: 1G04 (chimeric ONA-0-v1 IgG1 LALA antibody) (antibody)
heavy: not shown
light: SIVMTQTPKFLLVSAGDRITITCKASQSVSDDVAWYQQKPGQSPKLLIYYASNRYTGVPDRFTGSGYGTDFTFTISTVQAEDLAVYFCQQDYSSPLTFGAGTKLEIKRTVAAPSVFIFPPSDEQLKSGTASVVCLLNNFYPREAKVQWKVDNALQSGNSQESVTEQDSKDSTYSLSSTLTLSKADYEKHKVYACEVTHQGLSSPVTKSFNRGEC
notes: Human IgG1 with the LALA alteration, human kappa light chain; also called 1G04 (IgG1)
For B2, the “EC50 (read off the curve)” value in [7] is ~0.2 nM; in assay [8] it was ~0.3 nM; in [9] it was ~0.08 nM; in assay [1] it was ~0.03 nM; in [12], ~0.4 nM. In addition, the Kd in [10] turned out to be 2.78 nM; in assay [11], 1.74 nM; in [13], 0.04 nM; in assay [14], 0.1 nM. Also, the koff in [11] is 0.000159 s⁻¹. For the same molecule, in [11], the kon stood at 100000 M⁻¹ s⁻¹.

B3: 1G06 antibody (chimeric ONA-0-v1 IgG1) (antibody)
heavy: QVQLKQSGADLVRPGASVKLSCKASGYTFTDYYINWVKQRPGQGLEWIARIYPGSGNTYYNEKFKGKATLTAEKSSSTAYMQLSSLTSEDSAVYFCARGIGGGFGMDYWGQGTSVTVSSASTKGPSVFPLAPSSKSTSGGTAALGCLVKDYFPEPVTVSWNSGALTSGVHTFPAVLQSSGLYSLSSVVTVPSSSLGTQTYICNVNHKPSNTKVDKKVEPKSCDKTHTCPPCPAPESTRGPSVFLFPPKPKDTLMISRTPEVTCVVVDVSHEDPEVKFNWYVDGVEVHNAKTKPREEQYNSTYRVVSVLTVLHQDWLNGKEYKCKVSNKALPAPIEKTISKAKGQPREPQVYTLPPSRDELTKNQVSLTCLVKGFYPSDIAVEWESNGQPENNYKTTPPVLDSDGSFFLYSKLTVDKSRWQQGNVFSCSVMHEALHNHYTQKSLSLSPGK
light: SIVMTQTPKFLLVSAGDRITITCKASQSVSDDVAWYQQKPGQSPKLLIYYASNRYTGVPDRFTGSGYGTDFTFTISTVQAEDLAVYFCQQDYSSPLTFGAGTKLEIKRTVAAPSVFIFPPSDEQLKSGTASVVCLLNNFYPREAKVQWKVDNALQSGNSQESVTEQDSKDSTYSLSSTLTLSKADYEKHKVYACEVTHQGLSSPVTKSFNRGEC
For B3, the “EC50 (read off the curve)” value in assay [9] was ~0.08 nM; in assay [12] it was ~0.4 nM.

As usually defined, the EC50 (read off the curve) is the concentration needed to bring the measured effect to its halfway point. As usually defined, the Kd is a measure of binding affinity in units of concentration. As a reminder, the koff is a measure of how fast the partners let go of each other. For orientation: kon means a measure of how fast the partners come together.
